Assay results from patent US20030091557A1 (Human Genome Sciences, published 2003).
Blank lines part the entries; values can stand above or below the binder they belong to. Bridges are numbered along the chain shown (N, C = ends).

Molecular target: recombinant human ACE-2 (human, UniProt Q9BYF1 18-740, limits assumed)
Test: cell-based or functional assay

recombinant human ACE-2, sequence (Q9BYF1 18-740 limits assumed): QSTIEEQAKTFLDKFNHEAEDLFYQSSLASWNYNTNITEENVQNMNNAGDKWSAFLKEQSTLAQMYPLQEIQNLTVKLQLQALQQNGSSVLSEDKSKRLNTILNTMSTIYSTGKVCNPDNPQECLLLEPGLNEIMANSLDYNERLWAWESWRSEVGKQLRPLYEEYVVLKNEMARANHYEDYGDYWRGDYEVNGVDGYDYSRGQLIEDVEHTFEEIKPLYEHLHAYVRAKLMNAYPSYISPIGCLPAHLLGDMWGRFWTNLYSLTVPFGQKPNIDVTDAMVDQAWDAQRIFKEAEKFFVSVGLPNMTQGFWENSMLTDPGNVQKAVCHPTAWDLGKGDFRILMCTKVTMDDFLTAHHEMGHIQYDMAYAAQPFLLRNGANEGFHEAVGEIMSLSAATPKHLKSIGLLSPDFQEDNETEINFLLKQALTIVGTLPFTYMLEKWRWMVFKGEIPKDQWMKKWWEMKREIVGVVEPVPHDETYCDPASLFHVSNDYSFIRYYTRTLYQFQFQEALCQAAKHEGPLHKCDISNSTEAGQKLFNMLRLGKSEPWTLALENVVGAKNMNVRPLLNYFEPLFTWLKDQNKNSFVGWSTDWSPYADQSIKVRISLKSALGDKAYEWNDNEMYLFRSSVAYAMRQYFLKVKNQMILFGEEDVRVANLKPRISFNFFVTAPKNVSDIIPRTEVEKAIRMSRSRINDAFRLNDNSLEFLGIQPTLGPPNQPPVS

B1: DX-524 (peptide)
peptide: Ac-GSRIGCRDSRCNWWAPGEGGG-NH2
modifications: disulfide 6-11 (inferred); also: oxidized
IC50 µM (ACE-2 cleavage of M-2195, fluorometric): 0.6 µM

B4: DX-513 (peptide)
peptide: Ac-GDLHACRPVRGDPWWACTLGDPEGGG-NH2
modifications: disulfide 6-17 (inferred); also: oxidized
IC50 µM (ACE-2 cleavage of M-2195, fluorometric): 0.09 µM

B6: DX-530 (peptide)
peptide: Ac-AGQKECKFGYPHCLPWGTEGGG-NH2
modifications: disulfide 6-13 (inferred); also: oxidized
IC50 µM (ACE-2 cleavage of M-2195, fluorometric): 30 µM

B7: DX-512 (peptide)
peptide: Ac-GDRLHCKPQRQSPWMKCQHLDPEGGG-NH2
modifications: disulfide 6-17 (inferred)
IC50 µM (ACE-2 cleavage of M-2195, fluorometric): 0.06 µM

B8: DX-525 (peptide)
peptide: Ac-GSRGFCRDSSCSFPAPGEGGG-NH2
modifications: disulfide 6-11 (inferred); also: oxidized
IC50 µM (ACE-2 cleavage of M-2195, fluorometric): 1 µM

B9: DX-529 (peptide)
peptide: Ac-AGWEVCHWAPMMCKHGGTEGGG-NH2
modifications: disulfide 6-13 (inferred); also: oxidized
IC50 µM (ACE-2 cleavage of M-2195, fluorometric): 0.4 µM

Now from value to binder:

IC50 µM (ACE-2 cleavage of M-2195, fluorometric): 0.12 µM
B2: DX-602 (peptide)
peptide: Ac-GDFSPCKALRHSPWWVCPSGDPEGGG-NH2
modifications: disulfide 6-17 (inferred)

IC50 µM (ACE-2 cleavage of M-2195, fluorometric): 0.068 µM
B3: DX-601 (peptide)
peptide: Ac-GDGFTCSPIRMFPWFRCDLGDPEGGG-NH2
modifications: disulfide 6-17 (inferred)

IC50 µM (ACE-2 cleavage of M-2195, fluorometric): 0.5 µM
B5: DX-531 (peptide)
peptide: Ac-AGSDWCGTWNNPCFHQGTEGGG-NH2
modifications: disulfide 6-13 (inferred); also: oxidized

IC50 µM (ACE-2 cleavage of M-2195, fluorometric): 0.14 µM
B10: DX-599 (peptide)
peptide: Ac-GDRYLCLPQRDKPWKFCNWFDPEGGG-NH2
modifications: disulfide 6-17 (inferred); also: oxidized
